Literature values as cited in paper PMC12368481, “Discovery of a Phenylalanine‐Derived Natural Compound as a Potential Dual Inhibitor of MDM2 and MDMX” (Chemmedchem, 2025).
pKd: −log10 of the molar value. Like-named read-outs stand apart in the source and are kept apart here.

Legend:
[1] = molecular target: p53 peptide (Homo sapiens) (UniProt P04637)
[2] = molecular target: p53 peptide (Homo sapiens) (UniProt P04637); remark: listed apart in the source

Chain of p53 peptide (Homo sapiens) (P04637 whole entry): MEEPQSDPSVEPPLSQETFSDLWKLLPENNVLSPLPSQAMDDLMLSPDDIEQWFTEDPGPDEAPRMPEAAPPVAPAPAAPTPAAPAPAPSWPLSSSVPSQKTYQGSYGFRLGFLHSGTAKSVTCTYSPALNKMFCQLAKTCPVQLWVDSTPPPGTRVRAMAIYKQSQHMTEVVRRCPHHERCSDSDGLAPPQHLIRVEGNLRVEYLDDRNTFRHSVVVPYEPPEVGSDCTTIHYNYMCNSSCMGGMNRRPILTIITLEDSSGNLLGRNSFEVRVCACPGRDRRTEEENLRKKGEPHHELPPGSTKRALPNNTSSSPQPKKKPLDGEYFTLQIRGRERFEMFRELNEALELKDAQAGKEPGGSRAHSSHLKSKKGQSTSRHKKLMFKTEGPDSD
Chain of MDM2 (Q00987 whole entry): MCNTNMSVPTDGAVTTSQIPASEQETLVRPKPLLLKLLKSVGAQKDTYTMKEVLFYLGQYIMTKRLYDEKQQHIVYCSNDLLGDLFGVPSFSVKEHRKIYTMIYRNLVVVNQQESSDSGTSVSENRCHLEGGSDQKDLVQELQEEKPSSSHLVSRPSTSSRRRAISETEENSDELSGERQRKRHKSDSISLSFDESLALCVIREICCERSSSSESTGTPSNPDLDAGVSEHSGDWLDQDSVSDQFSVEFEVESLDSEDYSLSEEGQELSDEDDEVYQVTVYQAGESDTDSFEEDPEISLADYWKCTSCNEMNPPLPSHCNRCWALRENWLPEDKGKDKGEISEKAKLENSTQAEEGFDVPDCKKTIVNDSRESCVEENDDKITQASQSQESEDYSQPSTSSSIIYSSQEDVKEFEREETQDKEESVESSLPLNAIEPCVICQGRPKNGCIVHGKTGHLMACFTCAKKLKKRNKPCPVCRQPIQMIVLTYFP
Chain of MDMX (O15151 whole entry): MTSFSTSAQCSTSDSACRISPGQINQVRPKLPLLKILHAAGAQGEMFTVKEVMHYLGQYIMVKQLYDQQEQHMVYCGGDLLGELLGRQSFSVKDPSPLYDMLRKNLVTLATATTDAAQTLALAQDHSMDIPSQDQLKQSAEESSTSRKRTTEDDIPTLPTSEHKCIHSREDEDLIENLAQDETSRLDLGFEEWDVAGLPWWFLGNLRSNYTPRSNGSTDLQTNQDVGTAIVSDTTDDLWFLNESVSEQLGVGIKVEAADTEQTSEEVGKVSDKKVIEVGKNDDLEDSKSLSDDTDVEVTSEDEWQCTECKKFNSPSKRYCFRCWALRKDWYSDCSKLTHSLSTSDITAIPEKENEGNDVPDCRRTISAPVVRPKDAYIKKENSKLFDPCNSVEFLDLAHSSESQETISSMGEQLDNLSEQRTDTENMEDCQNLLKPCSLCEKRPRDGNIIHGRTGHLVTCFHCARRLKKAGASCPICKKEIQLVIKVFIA

**Q.** With MDM2 (from UniProt Q00987) as the substance, how does the pKd [1] read?
**A.** Its pKd is 5.95.

**Q.** With MDMX (from UniProt O15151) as the substance, how does the pKd [2] read?
**A.** The pKd was 6.47.
